The results in this text go back to patent US20140322162A1.

Assay [1] addresses H-ferritin binding sites (receptor) on rat brain microvessels (rat). The assay can be described thus: saturation binding of 125I-rH-ferritin to rat brain microvessels, global non-linear one-site fit.
Assay [2] has as its target H-ferritin binding sites (receptor) on bovine retinal endothelial cell (BREC) homogenate (bovine). The assay can be described thus: saturation binding of 125I-rH-ferritin to BREC homogenate, global non-linear one-site fit.

Turning to “recombinant human H-ferritin (from UniProt P02794 1-183) (ligand)”, in assay [1], the Bmax (fmol/mg protein) was 573 and the Kd amounted to 7.9 nM. For the same substance, in assay [2], the Bmax (fmol/mg protein) was determined as 466 and the Kd came to 2.7 nM.
